Data on three molecules can be found in patent publication US20040186044A1, “Modulation of myelination by interaction with P75 and TRK receptors” (priority 2002, published 2004).

In series [1] the test system is Schwann cell/neuronal cocultures. The series is described as follows: Western blot of myelin proteins MAG and P0 in Schwann cell/DRG neuronal cocultures. Type of series: cell-based, rat. How it is done:
(§1) Dorsal Root Ganglia (DRG) Neuronal Schwann Cell Cocultures. Purified neuronal and Schwann cell cultures were prepared as previously described. Neuronal cultures were established from DRG neurons obtained from Sprague-Dawley rat embryos at 15 days gestation (Simonsen Laboratories, Gilroy, Calif.). DRG neurons were dissociated and plated onto collagen coated coverslips. Nonneuronal cells were eliminated by cycling (three 2-day cycles) with a fluorodeoxyuridine-containing medium (10 μM). NGF-dependent neurons were then maintained for 1 week in a medium consisting of 10% FBS in MEM and 100 ng/ml of NGF.
(§2) Schwann cells were isolated from the sciatic nerve of 4-day-old rat pups. Schwann cells were purified by using cytosine arabinoside and Thy-1.1 antibody mediated lysis of the fibroblasts (the anti-Thy-1.1 antibody was obtained from the American Type Culture Collection). Approximately 100,000 purified Schwann cells were than seeded onto purified neuronal cultures of ˜50,000 cells and allowed to proliferate and ensheath the axons (˜1 week). Myelination was then initiated with the addition of ascorbic acid (50 μg/ml), which was replenished with feeding every 2 to 3 days.
(§3) Western Blot Analysis. Samples from Schwann cell/neuronal co-cultures and sciatic nerves were prepared for Western blot analysis by homogenization in radioimmunoprecipitation assay (RIPA) buffer [PBS with 1% Nonidet P-40/0.5% deoxycholate/0.1% SDS/1 mM PMSF/Complete protease inhibitor tablets (Roche Molecular Biochemicals)] followed by high-speed centrifugation. Protein determination was made by using the Bicinchoninic Acid Kit (Sigma). Equivalent amounts of total protein extract from each sample were mixed with sample buffer, boiled, and loaded onto SDS polyacrylamide gels. Electrophoretic separation of the extracts was typically performed on 10-15% (depending on the molecular weight of the protein of interest) discontinuous acrylamide gels under denaturing conditions. The proteins were then transferred to pure nitrocellulose membranes (PROTRAN BA85, Schleicher and Schuell, 0.45 μm) and probed with specific antibodies. The mouse monoclonal anti-myelin-associated glycoprotein (MAG; Chemicon) was used at a concentration of 2.5 μg/ml (under nonreducing conditions); the mouse monoclonal anti-P0 antibody was used at a dilution of 1:5,000. All primary antibodies were incubated overnight at 4° C. Secondary HRP-conjugated anti-mouse IgG and anti-rabbit IgG antibodies were used at a dilution of 1:10,000 (Jackson ImmunoResearch). The blots were developed by chemiluminescence (Renaissance, DuPont_NEN) as described by the manufacturer. All of the blots were imaged and quantitated in the linear range for the corresponding antibodies. Protein concentrations of the samples were serial diluted until linear intensities were achieved. In many instances, the blots were stripped and reprobed with different antibodies.
In general terms: In western blotting, separated proteins are transferred to a membrane and probed.

Series [2] shares this test system. Briefly: P0 immunocytochemistry of mature myelin internodes in Schwann cell/neuronal cocultures. To be noted: for Schwann cell proliferation and morphology of ensheathed Schwann cells / cell death (neurofilament and nuclear staining): 100 ng/ml; for formation of mature myelin internodes (P0 immunostaining): BDNF, TrkB-Fc, TrkC-Fc 1 μg/ml, added at day of induction, 6 days after induction. Type of series: cell-based. The method, then:
as §1, §2
Immunocytochemistry. Cocultures were fixed in 4% paraformaldehyde before dehydration through a graded ethanol series (50, 70, 90, and 100%). Samples were then permeabilized and blocked by incubation with 20% normal goat serum or 10% FCS. Primary antibodies included the mouse monoclonal anti-P0 antibody used at a dilution of 1:500 and the mouse monoclonal anti-MAG at a concentration of 2.5 μg/ml. The Texas red-conjugated anti-mouse IgG (Jackson ImmunoResearch) was used as a secondary antibody at a dilution of 1:1,000. Cellular nuclei were examined by using the Hoechst dye. Samples were mounted and fluorescence microscopy was accomplished by using a Nikon Microphot FXA.

The subject of the next series is SC/DRG cocultures. The series is described as follows: TUNEL analysis of neuronal or glial survival in SC/DRG cocultures. Type of series: cell-based, rat. To be noted: added at the start of myelination.
The subject of series [3] is sciatic nerve. Briefly: Western blot of MAG and P0 in developing sciatic nerve after s.c. injection of newborn mice. It is filed as in vivo, mouse. Conditions: for P0 and MAG protein expression, wild-type mice: newborn wild-type mice, Western-blot 4 days later. The method, then: as §3
(§4) Injections in Mouse Sciatic Nerve. BDNF, NT3, TrkB-Fc, and TrkC-Fc (3 μg each; Regeneron Pharmaceuticals) were injected s.c. starting from the caudal portion of the greater trochanter region and running parallel along the sciatic nerve (total volume of 5 μl). T he contralateral leg served as a control for each factor with the injection of saline. Injections were performed on 1-day-old mouse pups (C57BU6, Simonsen Laboratories) and the sciatic nerves were extracted and processed 48 h later. A second set of mice were reinjected with the factors and then examined after an additional 48 h (4 days of total treatment). Nerves used for electron microscopy were trimmed and incisions were made at the flexure of the greater trochanter. In total, 11 animals were analyzed after injection with BDNF, 12 with TrkB-Fc, 11 with NT3, and 7 with TrkC-Fc.

For series [4], the system named is sciatic nerve of p75NTR -/- mice. The series is described as follows: Western blot of P0 and MAG in sciatic nerve of injected newborn p75NTR -/- mice. Type of series: in vivo, mouse. Conditions: Western-blot 4 days later. The method, then:
(§5) (A-B) Newborn wild-type and p75^NTR −/− mice were injected with BDNF (wild-type, n=10; p75^NTR −/−, n=25) and NT3 (wild-type, n=13; p75^NTR −/−, n=14) or the scavengers TrkB-Fc (wild-type, n=13; p75^NTR −/−, n=20) and TrkC-Fc (wild-type, n=14; p75^NTR −/−, n=20) and the levels of (A) P0 and (B) MAG were analyzed by Western-blot 4 days later. Asterisks: p<0.01. (C-D) Wild-type and p75^NTR −/− SC/DRG cocultures were established from E13 mouse embryos obtained through crossing heterozygous (p75^NTR +/−) mice. Levels of (C) P0 and (D) MAG were determined by Western-blot six days after initiation of myelination in the presence of the different factors. Asterisks: p<0.01.

Series [5] concerns wild-type SC/DRG cocultures. Briefly: Western blot of P0 and MAG in wild-type mouse SC/DRG cocultures. Type of series: cell-based. To be noted: six days after initiation of myelination. How it is done:
as §5

For series [6], the system named is p75NTR -/- SC/DRG cocultures. Briefly: Western blot of P0 and MAG in p75NTR -/- mouse SC/DRG cocultures. It is filed as cell-based. Conditions: six days after initiation of myelination. How it is done:
as §5

The test system of series [7] is sciatic nerve. Briefly: Electron microscopy of myelin ultrastructure in developing sciatic nerve of injected newborn mice. It is filed as in vivo, mouse. How it is done: as §4
Electron Microscopy. Electron microscopy was performed by the Electron Microscopy Facility in the Department of Microbiology and Immunology (Stanford University, CA). Processing of the sciatic nerve was accomplished by fixation in 2% glutaraldehyde and 4% paraformaldehyde solution in PBS, followed by post-fixation in 1% OSO4. […] Finally, samples were infiltrated and embedded in pure epoxy.

[8] abbreviates: 100 ng/ml added at day of induction, analysed after 6 days of induction.
The mark [9] stands for this setting: 3 μg at P1, reinjected 2 days later, nerves at P5, vs contralateral saline.
Where [10] appears, read: 3 μg at P1, reinjected, nerves at P5.

Consider `COC(=O)[C@@]1(O)C[C@H]2O[C@]1(C)n1c3ccccc3c3c4c(c5c6ccccc6n2c5c31)C(=O)NC4` [K252a, K-252a, reference compound], for which the “accumulation of myelin proteins MAG and P0” value in series [1] (rat SC/DRG cocultures treated for 6 days from induction) is listed as “increase in myelin protein accumulation”. Further, the “formation of mature myelin internodes (P0 immunocytochemistry)” value in series [2] (rat SC/DRG cocultures, Example 2) is reported as “increase”. Besides, the “neuronal or glial survival” value with SC/DRG cocultures is reported as “does not affect neuronal or glial survival”.

On to “NT3: neurotrophin-3, gift from Regeneron Pharmaceuticals”, for which, in series [1] (setting [8]), the “diminished expression of MAG” value is recorded as around 2 fold and the “diminished expression of P0” value was around 3 fold. For the same molecule, in series [2], the “Schwann cell proliferation and morphology of ensheathed Schwann cells” value is listed as “Neither BDNF nor NT3 caused any changes”; the “cell death (neurofilament and nuclear staining)” value is on record as “no sign of increased cell death”. Further, in series [2] (NT3 100 ng/ml), the “formation of mature myelin internodes (P0 immunostaining)” value is recorded as “inhibited the appearance of myelin internodes”. Moreover, the “thickness and length of detected internodes vs control cultures” value in series [2] (NT3 100 ng/ml, TrkB-Fc 1 μg/ml) is “significantly thinner and shorter in length”. Besides, the “inhibition of MAG and P0 expression in the sciatic nerves” value in the series on sciatic nerve [3] (3 μg s.c., mice treated for 2 days, vs contralateral leg) is around 25%. Besides, in the series on sciatic nerve [3], the “P0 and MAG protein expression, wild-type mice” value is reported as “inhibited”. Also, the “P0 and MAG protein expression, p75NTR -/- mice” value in series [4] was “inhibited”. Further, the “myelin protein expression (P0, MAG), wild-type cocultures” value in series [5] is listed as “inhibited”. Also, the “myelin protein expression (P0, MAG), p75NTR -/- cocultures” value in series [6] is recorded as “inhibited”.

B1: BDNF: neurotrophin brain-derived neurotrophic factor, gift from Regeneron Pharmaceuticals (protein, UniProt P23560 19-247, looked up)
Neurotrophic factor BDNF …: APMKEANIRGQGGLAYPGVRTHGTLESVNGPKAGSRGLTSLADTFEHVIEELLDEDQKVRPNEENNKDADLYTSRVMLSSQVPLEPPLLFLLEEYKNYLDAANMSMRVRRHSDPARRGELSVCDSISEWVTAADKKTAVDMSGGTVTVLEKVPVSKGQLKQYFYETKCNPMGYTKEGCRGIDKRHWNSQCRTTQSYVRALTMDSKKRIGWRFIRIDTSCVCTLTIKRGR
Take B1: in series [1] (setting [8]), the “enhancement of MAG expression over control cultures” value is given as around 2 fold and the “enhancement of P0 expression over control cultures” value is reported as around 1.5 fold. Also, the “modulation of myelination (P0 and MAG) in the presence of K252a” value in series [1] (in combination with K252a, 6 days) is reported as “still able to modulate myelination”. Besides, in series [2], the “Schwann cell proliferation and morphology of ensheathed Schwann cells” value is given as “Neither BDNF nor NT3 caused any changes”; the “cell death (neurofilament and nuclear staining)” value was “no sign of increased cell death”. The “formation of mature myelin internodes (P0 immunostaining)” value in series [2] (NT3 100 ng/ml) is on record as “produced an enhancement in myelin formation”. For the same molecule, the “enhancement of MAG and P0 expression in the sciatic nerves” value in the series with sciatic nerve [3] (3 μg s.c., 1-day-old mouse pups, vs saline-injected contralateral leg) is on record as “more than 50%”. Also, in the series with sciatic nerve [3], the “P0 and MAG protein expression, wild-type mice” value is “enhanced P0 and MAG protein expression”. Also, the “P0 and MAG expression in sciatic nerve” value in the series on sciatic nerve [3] (s.c. injection of newborn mice, nerves isolated four days later (Example 2)) is “enhanced P0 and MAG expression”. In the series on sciatic nerve [7] (setting [9]), the “decrease in ensheathed axons” value turned out to be 2 fold and the “number of myelinated axons” value is “significant correlative increase in the number of myelinated axons”. In addition, in the series with sciatic nerve [7] (setting [10]), the “more wraps of myelin on average than control nerves” value was determined as 25% and the “percentage of myelinated axons with more than 25 wraps of myelin” value is recorded as “more than 30%”. In addition, the “thickness of the myelin sheath (number of lamellae distribution) vs contralateral control nerve” value in the series with sciatic nerve [7] (newborn mice, sciatic nerve) was “significantly thicker”. Further, the “total number of axons vs contralateral control nerves” value in the series on sciatic nerve [7] (ultrastructural studies) is “did not reveal any differences in the total number of axons”. The “P0 and MAG protein expression, p75NTR -/- mice” value in series [4] is “neither BDNF nor TrkB-Fc were able to modulate myelin protein expression”. Also, the “myelin protein expression (P0, MAG), wild-type cocultures” value in series [5] was “enhanced”. The “myelin protein expression (P0, MAG), p75NTR -/- cocultures” value in series [6] is given as “neither BDNF nor TrkB-Fc had any effect”.
